From patent publication US20200231684A1 (published 2020)

T1: human IL-36R on cells (human, UniProt Q9HB29 20-575)
T1 sequence (looked up): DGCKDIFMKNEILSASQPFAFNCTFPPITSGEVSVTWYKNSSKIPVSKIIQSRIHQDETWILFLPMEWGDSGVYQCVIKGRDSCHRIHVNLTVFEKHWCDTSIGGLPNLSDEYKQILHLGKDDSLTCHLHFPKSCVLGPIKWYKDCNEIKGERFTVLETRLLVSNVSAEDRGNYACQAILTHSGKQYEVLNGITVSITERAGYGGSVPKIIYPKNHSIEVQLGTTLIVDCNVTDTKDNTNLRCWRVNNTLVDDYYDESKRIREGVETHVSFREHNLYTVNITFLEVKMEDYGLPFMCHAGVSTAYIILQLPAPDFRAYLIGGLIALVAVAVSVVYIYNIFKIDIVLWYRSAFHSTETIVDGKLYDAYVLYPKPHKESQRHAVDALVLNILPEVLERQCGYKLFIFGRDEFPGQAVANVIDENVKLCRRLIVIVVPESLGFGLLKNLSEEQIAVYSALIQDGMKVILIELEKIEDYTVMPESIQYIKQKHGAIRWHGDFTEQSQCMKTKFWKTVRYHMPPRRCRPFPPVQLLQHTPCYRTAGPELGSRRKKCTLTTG

T2: recombinant human IL-36R (ECD) (human, UniProt Q9HB29 20-332)
T2 construct: range 20-332; also called IL-1RL2; IL-1Rrp2
T2 sequence (looked up): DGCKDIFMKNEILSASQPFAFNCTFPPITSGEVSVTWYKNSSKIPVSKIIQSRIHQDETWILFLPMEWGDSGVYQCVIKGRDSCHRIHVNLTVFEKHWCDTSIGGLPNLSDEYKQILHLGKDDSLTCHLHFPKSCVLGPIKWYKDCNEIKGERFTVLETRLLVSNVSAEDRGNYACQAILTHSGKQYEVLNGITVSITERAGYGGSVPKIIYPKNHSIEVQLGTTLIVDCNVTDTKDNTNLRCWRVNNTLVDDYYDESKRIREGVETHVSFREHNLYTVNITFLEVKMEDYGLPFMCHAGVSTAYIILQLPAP

T3: mouse IL-36R (mouse, UniProt Q9ERS7 22-338)
T3 sequence (looked up): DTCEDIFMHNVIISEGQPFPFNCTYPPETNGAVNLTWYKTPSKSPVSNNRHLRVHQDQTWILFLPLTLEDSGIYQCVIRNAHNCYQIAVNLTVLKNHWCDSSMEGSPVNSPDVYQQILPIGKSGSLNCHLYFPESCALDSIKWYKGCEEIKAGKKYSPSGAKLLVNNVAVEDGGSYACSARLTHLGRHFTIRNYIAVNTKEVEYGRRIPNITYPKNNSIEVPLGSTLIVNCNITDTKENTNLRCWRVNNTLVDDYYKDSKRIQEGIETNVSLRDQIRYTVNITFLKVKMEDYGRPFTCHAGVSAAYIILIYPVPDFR

T4: human IL-1R1 (human, UniProt P14778 18-336, limits assumed)
T4 construct: also called IL-1RI
T4 sequence (looked up): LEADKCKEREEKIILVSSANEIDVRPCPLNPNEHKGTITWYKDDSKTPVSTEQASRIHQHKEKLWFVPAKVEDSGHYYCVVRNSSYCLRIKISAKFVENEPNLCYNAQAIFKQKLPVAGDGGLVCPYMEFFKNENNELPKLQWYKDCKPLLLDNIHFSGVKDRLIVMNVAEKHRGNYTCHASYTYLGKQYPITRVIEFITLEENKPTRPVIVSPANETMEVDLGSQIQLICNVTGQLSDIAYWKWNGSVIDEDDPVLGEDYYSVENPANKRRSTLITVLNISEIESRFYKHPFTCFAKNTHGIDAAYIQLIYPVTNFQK

B1: antibody 73C5 (antibody, V domains shown)
VH: QVQLKESGPGLVAPSQSLSITCTVSGFSLTNYAVHWVRQFPGKGLEWLGVIWSDGSTDFNAPFKSRLSINKDNSKSQVFFKMNSLQIDDTAIYYCARKGGYSGSWFAYWGQGTLVTVSA
VL: DIVMTQSQKFLSTSVGVRVSVTCKASQDVGTNVLWYQQKIGQSPKPLIYSASYRHSGVPDRFTGSGSGTDFTLIISNVQSEDLAEYFCQQYSRYPLTFGPGTKLELK
notes: Mouse monoclonal from hybridoma; also called 73C5C10; Mouse 73C5
B2: antibody 33D10 (antibody, V domains shown)
VH: QVQLQQSGTELLKPGASVKLSCKASGNTVTSYWMHWVKQRPGQGLEWIGEILPSTGRTNYNENFKGKAMLTVDKSSSTAYMQLSSLASEDSAVYYCTIVYFGNPWFAYWGQGTLVTVSA
VL: QIVLTQSPAIMSASLGERVTMTCTASSSVSSSYLHWYQKKPGSSPKLWVYSTSNLASGVPVRFSGSGSGTSYSLTISSMEAEDAATYYCHQHHRSPVTFGSGTKLEMK
notes: Mouse monoclonal from hybridoma; also called 33D10B12; Mouse 33D10
B3: antibody 81A1 (antibody, V domains shown)
VH: QVQLKESGPGLVAPSQSLFITCTVSGFSLSSYEINWVRQVPGKGLEWLGVIWTGITTNYNSALISRLSISKDNSKSLVFLKMNSLQTDDTAIYYCARGTGTGFYYAMDYWGQGTSVTVSS
VL: DIQMTQTTSSLSASLGDRVTISCRASQDIYKYLNWYQQKPDGTLKLLIYYTSGLHSGVPSRFSGSGSGTDFSLTISNLEPEDIATYFCQQDSKFPWTFGGDTKLEIK
notes: Mouse monoclonal from hybridoma; also called 81A1D1; Mouse 81A1

Assays:
human IL-36R on cells [1] = target: T1, human IL-36R on cells; test: cell-based or functional assay
[2] = target: cynomolgus IL-36R on BaF/3 cells (cynomolgus, UniProt A0A2K5WSK9 20-558); test: cell-based or functional assay
cynomolgus IL-36R on BaF/3 cells, sequence (A0A2K5WSK9 entry or part of it): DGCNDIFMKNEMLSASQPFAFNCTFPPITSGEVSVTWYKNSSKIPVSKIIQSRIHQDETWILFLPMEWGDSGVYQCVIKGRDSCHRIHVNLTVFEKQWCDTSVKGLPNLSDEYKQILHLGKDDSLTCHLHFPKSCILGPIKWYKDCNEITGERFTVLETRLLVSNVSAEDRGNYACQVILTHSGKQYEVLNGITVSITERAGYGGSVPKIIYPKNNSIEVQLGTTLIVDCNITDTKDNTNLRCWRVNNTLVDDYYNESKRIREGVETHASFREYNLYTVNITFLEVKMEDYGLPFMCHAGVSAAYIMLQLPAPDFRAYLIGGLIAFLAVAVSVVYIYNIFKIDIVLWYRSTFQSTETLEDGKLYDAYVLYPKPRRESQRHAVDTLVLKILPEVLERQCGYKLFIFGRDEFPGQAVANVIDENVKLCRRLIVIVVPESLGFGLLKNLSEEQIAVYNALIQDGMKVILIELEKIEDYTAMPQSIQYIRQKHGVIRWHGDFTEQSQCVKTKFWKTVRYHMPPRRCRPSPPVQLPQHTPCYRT

human IL-36R on cells [3] = target: T1, human IL-36R on cells; test: cell-based or functional assay; remark: listed apart in the source
[4] = target: T2, recombinant human IL-36R (ECD); test: SPR (ProteOn), single IL-36R surface coat concentration
Protocol: A) Kinetics and binding affinities of anti-IL-36R antibodies binding to recombinant human IL-36R were measured using the Proteon (Bio-Rad, Hercules, Calif.) using material generated from hybridoma following single column purification. […] Binding of the chimeric anti-IL36R IgGs is equivalent to the respective mouse leads.

mouse IL-36R = target: T3, mouse IL-36R; test: BLI (Fortebio Octet), antibody injected over antigen surface
Protocol: (§1) B) Molecular selectivity over mouse IL-36R and human IL-1R1 The mouse and chimeric anti-IL-36R antibodies were also injected over either a mouse IL-36R or a human IL-1R1 surface at a concentration of 100 nM. The binding signal to mouse IL-36R and to human IL-1R1 for these antibodies measured using the Fortebio Octet (Fortebio, Menlo Park, Calif.) is zero, which indicates these antibodies selectively bind to human IL-36R.

human IL-1R1 = target: T4, human IL-1R1; test: as above
Protocol: as §1

[5] = target: T2, recombinant human IL-36R (ECD); test: SPR (ProteOn), recombinant human IL-36R at 7 surface densities, global fit
Protocol: A) Kinetics and binding affinities of anti-IL-36R antibodies binding to recombinant human IL-36R were measured using the Proteon (Bio-Rad, Hercules, Calif.) using material generated from hybridoma following single column purification. […] The binding affinities of the mouse antibodies to human IL-36R run at 7 different surface densities (globally fit) is shown in Table 1. Binding of the chimeric anti-IL36R IgGs is equivalent to the respective mouse leads.

human IL-36R on cells [6] = target: T1, human IL-36R on cells; test: flow cytometry, HEK293 cells transfected with full-length human IL-36R
Protocol: HEK293 cells transfected with full-length human IL-36R or NCI/ADR-RES cells were passaged for 24 hours prior to staining. Cells were removed from flasks by rinsing with 10 ml of 5 mM EDTA in PBS, and then incubated at 37° C. for 10 min with an additional 10 ml of 5 mM EDTA and 2.5 ml of Accumax to declump/disperse cells. Antibodies were then diluted to specified concentrations in PBS+2% BSA, and cells incubated for 20 min at room temperature. Excess antibody was then washed by adding 200 μl of PBS and then centrifuged. Secondary reagent was then added at 50 μl per well and cells are incubated for 15 min at room temperature and then washed as above. Cells were resuspended in 200 μl PBS and analyzed by flow cytometry.

IC90, GM-CSF release, NCI/ADR-RES cells, trun-IL-36a (human IL-36R on cells [1]) [nM] | IC90, GM-CSF release, NCI/ADR-RES cells, trun-IL-36b (human IL-36R on cells [1]) [nM] | IC90, GM-CSF release, NCI/ADR-RES cells, trun-IL-36g (human IL-36R on cells [1]) [nM] | IC90, IL-6 release, NCI/ADR-RES cells, trun-IL-36a (human IL-36R on cells [1]) [nM] | IC90, IL-6 release, NCI/ADR-RES cells, trun-IL-36b (human IL-36R on cells [1]) [nM] | IC90, IL-6 release, NCI/ADR-RES cells, trun-IL-36g (human IL-36R on cells [1]) [nM] | IC90, IL-8 release, NCI/ADR-RES cells, trun-IL-36a (human IL-36R on cells [1]) [nM] | IC90, IL-8 release, NCI/ADR-RES cells, trun-IL-36b (human IL-36R on cells [1]) [nM] | IC90, IL-8 release, NCI/ADR-RES cells, trun-IL-36g (human IL-36R on cells [1]) [nM] | IC90, pNFκB, NCI/ADR-RES cells, trun-IL-36a (human IL-36R on cells [1]) [nM] | IC90, pNFκB, NCI/ADR-RES cells, trun-IL-36b (human IL-36R on cells [1]) [nM] | IC90, pNFκB, NCI/ADR-RES cells, trun-IL-36g (human IL-36R on cells [1]) [nM] | IC90, pNFκB, BaF/3 cynomolgus IL-36R cells, trun-IL-36a [2] | IC90, pNFκB, BaF/3 cynomolgus IL-36R cells, trun-IL-36b [2] [nM] | IC90, pNFκB, BaF/3 cynomolgus IL-36R cells, trun-IL-36g [2] [nM] | IC90, IL-8 release, human primary keratinocytes (NHK), trun-IL-36a (human IL-36R on cells [3]) [nM] | Kd [4] [nM] | binding result (mouse IL-36R) | binding result (human IL-1R1) | Kd [5] [nM] | also measured | Binder
4.8 | 1.4 | 2 | 19 | 3.8 | 1.9 | 3.3 | 0.6 | 1.4 | 3.4 | 3.4 | 2.5 | 0.2 nM | 1.6 | 1.5 | 20.8 | < 0.1 | no binding (tested: 100 nM) | no binding (tested: 100 nM) | 0.057 | IC90, IL-8 release, human primary keratinocytes (NHK), trun-IL-36b (human IL-36R on cells [3]): 46 nM; IC90, IL-8 release, human primary keratinocytes (NHK), trun-IL-36g (human IL-36R on cells [3]): 2.4 nM; IC90, pNFκB, human primary keratinocytes (NHK), trun-IL-36a (human IL-36R on cells [3]): 10.7 nM; IC90, pNFκB, human primary keratinocytes (NHK), trun-IL-36b (human IL-36R on cells [3]): 14.4 nM; IC90, pNFκB, human primary keratinocytes (NHK), trun-IL-36g (human IL-36R on cells [3]): 1.7 nM | B1
0.8 | 0.6 | 0.5 | 0.8 | 0.5 | 0.3 | 0.6 | 0.6 | 0.5 | 1.7 | 1.3 | 1.1 | > 4 µM | > 333 | > 333 | 1.5 | < 0.1 | no binding (tested: 100 nM) | no binding (tested: 100 nM) | 0.009 | IC90, IL-8 release, human primary keratinocytes (NHK), trun-IL-36b (human IL-36R on cells [3]): 3 nM; IC90, IL-8 release, human primary keratinocytes (NHK), trun-IL-36g (human IL-36R on cells [3]): 0.8 nM; IC90, pNFκB, human primary keratinocytes (NHK), trun-IL-36a (human IL-36R on cells [3]): 1.8 nM; IC90, pNFκB, human primary keratinocytes (NHK), trun-IL-36b (human IL-36R on cells [3]): 2.3 nM; IC90, pNFκB, human primary keratinocytes (NHK), trun-IL-36g (human IL-36R on cells [3]): 0.8 nM; EC50 (human IL-36R on cells [6]): 0.475 nM | B2
1.2 | 1.2 | 0.7 | 17 | 5.3 | 0.8 | 1.9 | 0.5 | 0.5 | 2.7 | 4.2 | 2.2 | 0.6 nM | 0.9 | 1 |  | < 0.1 | no binding (tested: 100 nM) | no binding (tested: 100 nM) | 0.016 | EC50 (human IL-36R on cells [6]): 0.28 nM | B3
